What was measured:
HLA-A*02:03 = assay: IEDB peptide-MHC binding, purified MHC/competitive/fluorescence; filed as Kd, often an IC50 or EC50 that approximates it; ≥ and ≤ were set here for values at or beyond the usual limits of such assays
HLA-A*02:01 [1] = assay: as above
HLA-A*26:02 = assay: as above
HLA-A*68:02 [2] = assay: as above
HLA-A*02:06 = assay: as above
HLA-B*08:01 = assay: as above; conditions: source organism: Vaccinia virus WR
HLA-B*15:01 [3] = assay: as above
HLA-B*39:01 = assay: as above
HLA-B*18:01 [4] = assay: as above; conditions: source organism: Vaccinia virus WR
HLA-A*26:01 = assay: IEDB peptide-MHC binding, purified MHC/direct/fluorescence; filed as Kd, often an IC50 or EC50 that approximates it; ≥ and ≤ were set here for values at or beyond the usual limits of such assays; conditions: source organism: Variola virus
HLA-A*69:01 [5] = assay: as above; conditions: source organism: Camelpox virus M-96
HLA-B*07:02 = assay: as above
HLA-B*08:02 = assay: as above; conditions: source organism: Variola virus
HLA-A*24:03 = assay: as above
HLA-B*57:01 = assay: as above
HLA-A*01:01 = assay: as above
HLA-A*31:01 [6] = assay: as above
HLA-B*58:01 = assay: as above
HLA-A*11:01 = assay: as above
HLA-A*02:01 [7] = assay: as above
HLA-B*15:17 [8] = assay: as above
HLA-A*26:03 = assay: as above
HLA-B*15:17 [9] = assay: IEDB peptide-MHC binding, purified MHC/competitive/fluorescence; filed as Kd, often an IC50 or EC50 that approximates it; ≥ and ≤ were set here for values at or beyond the usual limits of such assays; conditions: source organism: Brucella abortus S19
HLA-B*48:01 = assay: IEDB peptide-MHC binding, purified MHC/direct/fluorescence; filed as Kd, often an IC50 or EC50 that approximates it; ≥ and ≤ were set here for values at or beyond the usual limits of such assays
HLA-B*15:01 [10] = assay: as above; conditions: source organism: Brucella abortus
HLA-B*40:01 [11] = assay: as above
HLA-A*03:01 = assay: as above
HLA-B*46:01 = assay: as above
HLA-B*27:05 = assay: as above
HLA-A*68:02 [12] = assay: as above; conditions: source organism: Brucella abortus
HLA-B*40:13 = assay: IEDB peptide-MHC binding, purified MHC/competitive/fluorescence; filed as Kd, often an IC50 or EC50 that approximates it; ≥ and ≤ were set here for values at or beyond the usual limits of such assays; conditions: source organism: Escherichia coli 536
HLA-B*45:06 = assay: as above
HLA-B*27:20 = assay: as above; conditions: source organism: Escherichia coli 536
HLA-B*40:01 [13] = assay: as above; conditions: source organism: Escherichia coli 536
HLA-B*83:01 = assay: as above
HLA-B*15:42 = assay: as above
HLA-A*32:07 = assay: as above
HLA-A*69:01 [14] = assay: as above; conditions: source organism: Mycobacterium tuberculosis variant bovis BCG str. Pasteur 1173P2
HLA-A*31:01 [15] = assay: as above; conditions: source organism: Mycobacterium tuberculosis variant bovis BCG str. Pasteur 1173P2
HLA-B*38:01 = assay: IEDB peptide-MHC binding, purified MHC/direct/fluorescence; filed as Kd, often an IC50 or EC50 that approximates it; ≥ and ≤ were set here for values at or beyond the usual limits of such assays; conditions: source organism: Mycobacterium tuberculosis str. Haarlem
HLA-B*51:01 = assay: as above; conditions: source organism: Mycobacterium tuberculosis
HLA-B*18:01 [16] = assay: as above; conditions: source organism: Mycobacterium tuberculosis
HLA-C*04:01 = assay: IEDB peptide-MHC binding, purified MHC/competitive/fluorescence; filed as Kd, often an IC50 or EC50 that approximates it; ≥ and ≤ were set here for values at or beyond the usual limits of such assays; conditions: source organism: Hantaan virus 76-118
HLA-A*24:02 = assay: IEDB peptide-MHC binding, purified MHC/direct/fluorescence; filed as Kd, often an IC50 or EC50 that approximates it; ≥ and ≤ were set here for values at or beyond the usual limits of such assays; conditions: source organism: Orthohantavirus hantanense
[17] = source organism: Human immunodeficiency virus 1
[18] = source organism: Vaccinia virus WR
[19] = source organism: Camelpox virus M-96
[20] = source organism: Brucella abortus
[21] = source organism: Escherichia coli 536
[22] = source organism: Mycobacterium tuberculosis variant bovis BCG str. Pasteur 1173P2
[23] = source organism: Mycobacterium tuberculosis
[24] = source organism: Hantaan virus 76-118

## EELKSLFNTV
HLA-A*02:03; [17]
  Kd: ≥ 20 µM
HLA-A*02:01 [1]; [17]
  Kd: 1.67 µM
HLA-A*26:02; [17]
  Kd: 1.08 µM
HLA-A*68:02 [2]; [17]
  Kd: 0.326 µM
HLA-A*02:06; [17]
  Kd: 0.515 µM

## EYYFRNEVF
HLA-B*08:01
  Kd: ≥ 20 µM
HLA-B*15:01 [3]; [18]
  Kd: 4.38 µM
HLA-B*39:01; [18]
  Kd: ≥ 20 µM
HLA-B*18:01 [4]
  Kd: 0.0078 µM
HLA-A*26:02; [18]
  Kd: 3.49 µM
HLA-A*68:02 [2]; [18]
  Kd: 3.39 µM
HLA-A*02:06; [18]
  Kd: 0.153 µM
HLA-A*26:01
  Kd: ≥ 20 µM
HLA-A*69:01 [5]
  Kd: ≥ 20 µM
HLA-B*07:02; [19]
  Kd: ≥ 20 µM
HLA-B*08:02
  Kd: ≥ 20 µM
HLA-A*24:03; [19]
  Kd: 0.195 µM
HLA-B*57:01; [19]
  Kd: ≥ 20 µM
HLA-A*01:01; [19]
  Kd: ≥ 20 µM
HLA-A*31:01 [6]; [19]
  Kd: ≥ 20 µM
HLA-B*58:01; [19]
  Kd: ≥ 20 µM
HLA-A*11:01; [19]
  Kd: ≥ 20 µM
HLA-A*02:01 [7]; [19]
  Kd: ≥ 20 µM
HLA-B*15:17 [8]; [19]
  Kd: ≥ 20 µM
HLA-A*26:03; source organism: Variola virus
  Kd: ≥ 20 µM

## RFRCVGPAP
HLA-B*15:17 [9]
  Kd: ≥ 20 µM
HLA-A*26:02; source organism: Brucella abortus S19
  Kd: ≥ 20 µM
HLA-B*48:01; [20]
  Kd: ≥ 20 µM
HLA-B*07:02; [20]
  Kd: ≥ 20 µM
HLA-B*57:01; [20]
  Kd: ≥ 20 µM
HLA-A*01:01; [20]
  Kd: ≥ 20 µM
HLA-A*31:01 [6]; [20]
  Kd: ≥ 20 µM
HLA-B*15:01 [10]
  Kd: ≥ 20 µM
HLA-B*40:01 [11]; [20]
  Kd: ≥ 20 µM
HLA-B*58:01; [20]
  Kd: ≥ 20 µM
HLA-A*03:01; [20]
  Kd: ≥ 20 µM
HLA-A*11:01; [20]
  Kd: ≥ 20 µM
HLA-A*02:01 [7]; [20]
  Kd: ≥ 20 µM
HLA-B*46:01; [20]
  Kd: ≥ 20 µM
HLA-B*27:05; [20]
  Kd: ≥ 20 µM
HLA-A*68:02 [12]
  Kd: ≥ 20 µM
HLA-A*26:03; source organism: Brucella suis 1330
  Kd: ≥ 20 µM

## RQRAVRMVL
HLA-B*40:13
  Kd: 0.0514 µM
HLA-B*45:06; [21]
  Kd: ≥ 5 µM
HLA-B*27:20
  Kd: 0.0016 µM
HLA-B*15:01 [3]; [21]
  Kd: 0.354 µM
HLA-B*40:01 [13]
  Kd: 1.87 µM
HLA-B*83:01; [21]
  Kd: ≥ 5 µM
HLA-B*39:01; [21]
  Kd: ≥ 5 µM
HLA-B*15:42; [21]
  Kd: 5.18 µM
HLA-A*32:07; [21]
  Kd: 0.0307 µM

## RVEESRARL
HLA-A*69:01 [14]
  Kd: ≥ 20 µM
HLA-A*31:01 [15]
  Kd: ≥ 20 µM
HLA-B*15:01 [3]; [22]
  Kd: ≥ 20 µM
HLA-A*02:03; [22]
  Kd: ≥ 20 µM
HLA-A*02:01 [1]; [22]
  Kd: ≥ 20 µM
HLA-B*48:01; [23]
  Kd: ≥ 20 µM
HLA-B*38:01
  Kd: ≥ 20 µM
HLA-B*57:01; [23]
  Kd: 2.5 µM
HLA-A*01:01; [23]
  Kd: ≥ 20 µM
HLA-B*40:01 [11]; [23]
  Kd: ≥ 20 µM
HLA-B*58:01; [23]
  Kd: ≥ 20 µM
HLA-A*03:01; [23]
  Kd: ≥ 20 µM
HLA-A*11:01; [23]
  Kd: ≥ 20 µM
HLA-B*51:01
  Kd: ≥ 20 µM
HLA-B*15:17 [8]; [23]
  Kd: 0.0194 µM
HLA-B*46:01; [23]
  Kd: ≥ 20 µM
HLA-B*18:01 [16]
  Kd: ≥ 20 µM
HLA-B*27:05; [23]
  Kd: ≥ 20 µM

## RYRTAVCGL
HLA-C*04:01
  Kd: ≥ 5 µM
HLA-B*45:06; [24]
  Kd: ≥ 5 µM
HLA-B*83:01; [24]
  Kd: ≥ 5 µM
HLA-B*15:42; [24]
  Kd: ≥ 5 µM
HLA-A*32:07; [24]
  Kd: 0.0076 µM
HLA-A*24:03; source organism: Orthohantavirus hantanense
  Kd: 0.0067 µM
HLA-A*24:02
  Kd: 0.024 µM

From the Immune Epitope Database (IEDB)
